In data set [1] the target is T1, GIPR (CHO-K1-hGIPR cells) (Homo sapiens, UniProt P48546).
T1 construct: host or cells: CHO-K1
T1 sequence (P48546 22-466): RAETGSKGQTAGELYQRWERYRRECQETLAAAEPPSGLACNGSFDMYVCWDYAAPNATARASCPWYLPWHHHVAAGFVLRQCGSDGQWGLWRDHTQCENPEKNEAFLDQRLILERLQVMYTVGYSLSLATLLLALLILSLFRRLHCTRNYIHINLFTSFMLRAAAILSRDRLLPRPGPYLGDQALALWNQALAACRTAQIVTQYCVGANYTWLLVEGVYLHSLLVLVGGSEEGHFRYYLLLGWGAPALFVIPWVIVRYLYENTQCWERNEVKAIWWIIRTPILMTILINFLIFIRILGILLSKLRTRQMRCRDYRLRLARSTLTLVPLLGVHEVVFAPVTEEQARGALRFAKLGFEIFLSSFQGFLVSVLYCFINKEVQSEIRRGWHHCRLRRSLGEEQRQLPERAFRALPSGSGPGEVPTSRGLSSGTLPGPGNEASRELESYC
In words: FACS binding assay. Conditions: read-out: pIC50 Category (converted). An outline of the steps:
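Steps: detach CHO-K1-hGIPR cells (Accutase); wash in PBS/1% FCS; adjust to 500.000 cells per mL; wash ice-cold; incubate APC-streptavidin 1 μg/mL, 30 min on ice; wash twice; acquire on flow cytometer; fit MFI-concentration data with a four-parameter logistic model.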
(A flow cytometer gives signals particle by particle.)

The nature of data set [2]: Plasma stability assay, mouse plasma. Format: in vitro ADME. Conditions: 37° C., % intact compound remaining after 4 h or 24 h. Here is the method: In order to determine the stability of selected compounds of the invention in human and mouse plasma, a plasma stability assay was carried out. Such plasma stability assay measures degradation of compounds of the present invention in blood plasma. This is an important characteristic of a compound as compounds, with the exception of pro-drugs, which rapidly degrade in plasma, generally show poor in vivo efficacy. […] The stability is sufficient for the diagnostic, therapeutic and theragnostic use of these compounds according to the present invention.
The plasma stability samples were prepared by spiking 50 μL plasma aliquots (all K2EDTA) with 1 μL of a 0.5 mM compound stock solution in DMS0. After vortexing the samples were incubated in a Thermomixer at 37° C. for 0, 4 and 24 hours. After incubation the samples were stored on ice until further treatment. All samples were prepared in duplicates.
A suitable internal standard was added to each sample (1 μL of a 0.5 mM stock solution in DMSO). Protein precipitation was performed by addition of 250 μL of acetonitrile containing 1% trifluoroacetic acid. After incubation at room temperature for 30 min the precipitate was separated by centrifugation and 150 μL of the supernatant was diluted with 150 μL of 1% aqueous formic acid.
Additionally, recovery was determined by spiking a pure plasma sample that only contained the internal standard after treatment with a certain amount of the compound.
Carry-over was evaluated by analysis of a blank sample (20% acetonitrile) after the highest calibration sample.

Data set [3] deals with biotinylated extracellular domain of the human GIP receptor (bioGIPR) (human) (UniProt P48546). In words: SPR single cycle kinetics, bioGIPR captured on chip; category A: pKD >9.0.
Data set [4] shares this target. In words: SPR single cycle kinetics, bioGIPR captured on chip; category A: t1/2 >15 min.
Data set [5] concerns the target human Gastric Inhibitory Peptide Receptor (human) (UniProt P48546). In words: FACS competition with GIP-057 on CHO-K1-hGIPR cells; pIC50 category B: 7.1-8.0.
The mark [6] stands for this setting: competition with 20 nM GIP-057, 4° C., 1 hour.

Like-named read-outs stand apart in the source and are kept apart here. *1 amine or outer side, *2 acyl side, *3 side chain or, on linkers, in order; H or OH if unused. Where a SMILES comes first, the peptide text is derived from it. Bridges are numbered along the chain shown (N, C = ends). Primed or numbered codes have the meaning given here. Where no end group is shown, it is not given here. [ ]: non-standard residue; d: D form. The star is where a group is joined. ξ: configuration not given here. X3 = O=C(O)CN1CCN(CC(=O)O)CCN(CC(=O)NCCCOCCOCCOCCCN*)CCN(CC(=O)O)CC1; 2,6‑lutidylidene = 2Lut, Cys-Cys crosslink via 2,6-lutidylidene; tMeBn(DOTA-PP) = mesitylene bridge bearing DOTA via piperazine; APAc″ = 4-amino-1-carboxymethylpiperidine, NC1CCN(CC(=O)*)CC1; dE(AGLU) = D-glutamic acid bearing 1-amino-1-deoxy-D-glucitol; MeO36PEG = monodisperse PEG 36 units conjugated with acetyl; Pro(trans-4-NH2) = O=C([C@@H]1C[C@@H](N[*:3])CN1[*:1])[*:2]; DOTA = O=C(O)CN1CCN(CC(=O)O)CCN(CC(=O)*)CCN(CC(=O)O)CC1; 2Lut = 2,6-lutidylidene bridge between two thiols; Trp(5-Cl) = N[C@@H](Cc1c[nH]c2ccc(Cl)cc12)C(=O)O; Pyridine(2,6-diCH2) = c1cc(C[*:1])nc(C[*:2])c1; APAc = 4-amino-1-carboxymethylpiperidine; mXylylene = c1cc(C[*:1])cc(C[*:2])c1; Glutaryl = O=C(CCCC(=O)[*:2])[*:1]; AGLU = 1-amino-1-deoxy-D-glucitol; X7 = c1cc(CSCCN[*:2])cc(C[*:1])c1; Hyp = O=C(O)[C@@H]1C[C@@H](O)CN1; Suc = O=C(CCC(=O)[*:2])[*:1]; dDab = NCC[C@@H](N)C(=O)O; Api = NC1(C(=O)O)CCNCC1; Thp = NC1(C(=O)O)CCOCC1; Aib = CC(C)(N)C(=O)O; ξP = O=C(O)C1CCCN1 Some results are limits rather than exact numbers.

`CC[C@H](C)[C@@H]1NC(=O)[C@H](CC(C)C)NC(=O)C(C)(C)NC(=O)[C@@H](NC(=O)[C@@H](CC(C)C)NC(=O)[C@H](CCC(=O)O)NC(=O)[C@@H]2CCCN2C(=O)[C@H](Cc2c[nH]c3ccccc23)NC(=O)[C@H](Cc2c[nH]c3ccccc23)NC(=O)[C@H](CC(=O)O)NC(=O)CCC(=O)NCCCOCCOCCOCCCNC(=O)CN2CCN(CC(=O)O)CCN(CC(=O)O)CCN(CC(=O)O)CC2)CSCc2cccc(c2)CSC[C@@H](C(N)=O)NC1=O` [GIP-128, DOTA-Ttds-Asp-Trp-Trp-Pro-Glu-leu-[Cys(3MeBn)-Aib-Leu-Ile-Cys]-NH2] ({X3-Suc}-DWWPE[dL]C[Aib]LIC-NH2; linker 7-11 via mXylylene): the IC50 in data set [1] (setting [6]) was 10 to 79.4 nM. Further, the “Mouse plasma stability category” value in data set [2] was “B (>80% intact after 4 hours)”.

Regarding `CC[C@H](C)[C@@H]1NC(=O)[C@H](CC(C)C)NC(=O)C(C)(C)NC(=O)[C@@H](NC(=O)[C@@H](CC(C)C)NC(=O)[C@H](CCC(=O)O)NC(=O)[C@@H]2CCCN2C(=O)[C@H](Cc2c[nH]c3ccccc23)NC(=O)[C@H](Cc2c[nH]c3ccccc23)NC(=O)[C@H](CC(=O)O)NC(=O)CCC(=O)NCCCOCCOCCOCCCNC(=O)CN2CCN(CC(=O)O)CCN(CC(=O)O)CCN(CC(=O)O)CC2)CSCc2cccc(c2)CSCCNC1=O` [GIP-129, DOTA-Ttds-Asp-Trp-Trp-Pro-Glu-leu-[Cys(3MeBn)-Aib-Leu-Ile-AET]] ({X3-Suc}-DWWPE[dL]C[Aib]LI; linker 7-C via X7), the IC50 in data set [1] (setting [6]) was 10 to 79.4 nM. For the same molecule, in data set [2], the “Mouse plasma stability category” value is reported as “B (>80% intact after 4 hours)”. Turning to `CC[C@H](C)[C@@H]1NC(=O)[C@H](CC(C)C)NC(=O)C(C)(C)NC(=O)[C@@H](NC(=O)[C@H](CC(C)C)NC(=O)[C@@H](CCC(=O)O)NC(=O)C2CCCN2C(=O)[C@H](Cc2c[nH]c3ccccc23)NC(=O)[C@H](Cc2c[nH]c3ccccc23)NC(=O)[C@H](CC(=O)O)NC(=O)CCC(=O)NCCCOCCOCCOCCCNC(=O)CN2CCN(CC(=O)O)CCN(CC(=O)O)CCN(CC(=O)O)CC2)CSCc2cccc(c2)CSC[C@@H](C(N)=O)NC1=O` (stereo partly drawn) [GIP-270, DOTA-Ttds-Asp-Trp-Trp-Pro-glu-Leu-[Cys(3MeBn)-Aib-Leu-Ile-Cys]-NH2] ({X3-Suc}-DWW[ξP][dE]LC[Aib]LIC-NH2; linker 7-11 via mXylylene), the IC50 in data set [1] (competition with 20 nM GIP-057, 4° C. for 1 hour) is 100 to 794 nM. In addition, the “Mouse plasma stability category” value in data set [2] was “B (>80% intact after 4 hours)”.

In the case of “AGLU-Glutar-APAc-Asp-Trp-5Clw-Tap(AGLU-Glutar)-Glu-leu-[Cys(2Lut)-Apc(DOTA-glu(AGLU))-Leu-Ile-Cys]-APAc-glu(AGLU)-NH2 (peptide)”, the pKD in data set [3] was > 9 pkd. For the same molecule, in data set [4], the t1/2 is > 15 min. In data set [5], this molecule yielded a pIC50 of 7.1 to 8 pic50. Regarding {AGLU-Glutaryl-APAc″}-DW[Trp(5-Cl)][Hyp]E[dL]C[Api](DOTA)LIC (linker 7-11 via Pyridine(2,6-diCH2); not fully specified (C-terminus)) [AGLU-Glutar-APAc-Asp-Trp-5Clw-Hyp-Glu-leu-[Cys(2Lut)-Apc(DOTA)-Leu-Ile-Cys]-lys(MeO36PEG)-NH2], the pIC50 in data set [5] fell in the range of 7.1 to 8 pic50. Molecule {MeO36PEG-APAc″}-DW[Trp(5-Cl)][Hyp]E[dL]C[Api](DOTA)LIC-{dE(AGLU)-NH2} (linker 7-11 via Pyridine(2,6-diCH2)) [MeO36PEG-APAc-Asp-Trp-5Clw-Hyp-Glu-leu-[Cys(2Lut)-Apc(DOTA)-Leu-Ile-Cys]-glu(AGLU)-NH2] yielded a pIC50 in data set [5] of 7.1 to 8 pic50.

B1: AGLU-Glutar-APAc-Hse-Trp-5Clw-Hyp-Glu-leu-[Cys(2Lut)-Apc(DOTA-glu(AGLU))-Leu-Ile-Cys]-APAc-glu(AGLU)-NH2 (peptide)
peptide: XWXXEXCXLIC
modifications: not fully specified; N-term AGLU-Glutar-APAc; Hse; 5Clw; Hyp; leu (D-Leu); thioether cycle [Cys(2Lut)..Cys]; Apc(DOTA-glu(AGLU)); C-term APAc-glu(AGLU)-NH2
Turning to B1, the pIC50 in data set [5] was 7.1 to 8 pic50.

In turn, {AGLU-Glutaryl}-DW[Trp(5-Cl)][Pro(trans-4-NH2)]E[dL]C[dK](DOTA)LIC-{APAc-dE(AGLU)-NH2} (linker 7-11 via Pyridine(2,6-diCH2)) [AGLU-Glutar-Asp-Trp-5Clw-Tap-Glu-leu-[Cys(2Lut)-lys(DOTA)-Leu-Ile-Cys]-APAc-glu(AGLU)-NH2] gave a pIC50 in data set [5] of 7.1 to 8 pic50. The same measure, in the same setting: the result for {MeO36PEG-APAc}-DW[Trp(5-Cl)][Pro(trans-4-NH2)]E[dL]C[Api](DOTA)LIC-{APAc-dE(AGLU)-NH2} (linker 7-11 via Pyridine(2,6-diCH2)) [MeO36PEG-APAc-Asp-Trp-5Clw-Tap-Glu-leu-[Cys(2Lut)-Apc(DOTA)-Leu-Ile-Cys]-APAc-glu(AGLU)-NH2] reads 7.1 to 8 pic50; that for {AGLU-Glutaryl}-DW[Trp(5-Cl)][Pro(trans-4-NH2)]E[dL]C[dDab](DOTA)LIC-{APAc-dE(AGLU)-NH2} (linker 7-11 via 2,6‑lutidylidene) [AGLU-Glutar-Asp-Trp-5Clw-Tap-Glu-leu-[Cys(2Lut)-dab(DOTA)-Leu-Ile-Cys]-APAc-glu(AGLU)-NH2], 7.1 to 8 pic50.

B2: HO-Succinyl-Trp-5Clw-Hyp-Glu-leu-[Cys(2Lut)-Thp-Leu-Ile-Cys]-APAc-lys(MeO2kDaPEGAc)-Lys(DOTA)-NH2 (peptide)
peptide: Suc-W[Trp(5-Cl)][Hyp]E[dL]C[Thp]LIC
modifications: linker 6-10 via 2Lut; not fully specified (C-terminus); printed as HO-Succinyl-Trp-5Clw-Hyp-Glu-leu-[Cys(2Lut)-Thp-Leu-Ile-Cys]-APAc-lys(MeO2kDaPEGAc)-Lys(DOTA)-NH2
B2 had a pIC50 in data set [5] of 7.1 to 8 pic50.

In data set [5], {MeO36PEG-APAc}-DW[Trp(5-Cl)][Hyp]E[dL]C[Api](DOTA)LIC-{APAc-dE(AGLU)-NH2} (linker 7-11 via Pyridine(2,6-diCH2)) [MeO36PEG-APAc-Asp-Trp-5Clw-Hyp-Glu-leu-[Cys(2Lut)-Apc(DOTA)-Leu-Ile-Cys]-APAc-glu(AGLU)-NH2] showed a pIC50 of 7.1 to 8 pic50. In the case of Ac-DW[Trp(5-Cl)][Hyp]E[dL]C[Thp]LIC-NH2 (linker 7-11 via tMeBn(DOTA-PP)) [Ac-Asp-Trp-5Clw-Hyp-Glu-leu-[Cys(tMeBn(DOTA-PP))-Thp-Leu-Ile-Cys]-NH2], the pIC50 in data set [5] was in the range of 7.1 to 8 pic50.

In data set [5], {AGLU-Glutaryl}-DW[Trp(5-Cl)][Pro(trans-4-NH2)]E[dL][dC][Api](DOTA)LI[dC]-{APAc-dE(AGLU)-NH2} (linker 7-11 via Pyridine(2,6-diCH2)) [AGLU-Glutar-Asp-Trp-5Clw-Tap-Glu-leu-[cys(2Lut)-Apc(DOTA)-Leu-Ile-cys]-APAc-glu(AGLU)-NH2] showed a pIC50 of 7.1 to 8 pic50.

B3: AGLU-Glutar-APAc-Hse-Trp-5Clw-Tap-Glu-leu-[Cys(2Lut)-Apc(DOTA)-Leu-Ile-Cys]-APAc-glu(AGLU)-NH2 (peptide)
peptide: XWXXEXCXLIC
modifications: N-term AGLU-Glutar-APAc; Hse; 5Clw; Tap; leu (D-Leu); thioether cycle [Cys(2Lut)..Cys]; Apc(DOTA); C-term APAc-glu(AGLU)-NH2
As for B3, the pIC50 in data set [5] is 7.1 to 8 pic50. On to {AGLU-Glutaryl}-DW[Trp(5-Cl)][Pro(trans-4-NH2)]E[dL][dC][Api](DOTA)LIC-{APAc-dE(AGLU)-NH2} (linker 7-11 via Pyridine(2,6-diCH2)) [AGLU-Glutar-Asp-Trp-5Clw-Tap-Glu-leu-[cys(2Lut)-Apc(DOTA)-Leu-Ile-Cys]-APAc-glu(AGLU)-NH2], for which, in data set [5], the pIC50 lay within 7.1 to 8 pic50.

Values taken from patent US20250296971A1, “GASTRIC INHIBITORY PEPTIDE RECEPTOR LIGANDS” (priority 2021, published 2025).
